For one molecule, two-hybrid peptide assay (pG4-LUC reporter, PC-3 cells, with against without 10 nM DHT) results are on record in patent US20080050387A1, “Non-Androgen Dependent Roles for Androgen Receptor and Non-Androgen Related Inhibitors of Androgen Receptor” (priority 2003, published 2008).

The experiment has as its target T1, VP16-AR containing the residues 37 to 919 (human), P10275.
T1 chain: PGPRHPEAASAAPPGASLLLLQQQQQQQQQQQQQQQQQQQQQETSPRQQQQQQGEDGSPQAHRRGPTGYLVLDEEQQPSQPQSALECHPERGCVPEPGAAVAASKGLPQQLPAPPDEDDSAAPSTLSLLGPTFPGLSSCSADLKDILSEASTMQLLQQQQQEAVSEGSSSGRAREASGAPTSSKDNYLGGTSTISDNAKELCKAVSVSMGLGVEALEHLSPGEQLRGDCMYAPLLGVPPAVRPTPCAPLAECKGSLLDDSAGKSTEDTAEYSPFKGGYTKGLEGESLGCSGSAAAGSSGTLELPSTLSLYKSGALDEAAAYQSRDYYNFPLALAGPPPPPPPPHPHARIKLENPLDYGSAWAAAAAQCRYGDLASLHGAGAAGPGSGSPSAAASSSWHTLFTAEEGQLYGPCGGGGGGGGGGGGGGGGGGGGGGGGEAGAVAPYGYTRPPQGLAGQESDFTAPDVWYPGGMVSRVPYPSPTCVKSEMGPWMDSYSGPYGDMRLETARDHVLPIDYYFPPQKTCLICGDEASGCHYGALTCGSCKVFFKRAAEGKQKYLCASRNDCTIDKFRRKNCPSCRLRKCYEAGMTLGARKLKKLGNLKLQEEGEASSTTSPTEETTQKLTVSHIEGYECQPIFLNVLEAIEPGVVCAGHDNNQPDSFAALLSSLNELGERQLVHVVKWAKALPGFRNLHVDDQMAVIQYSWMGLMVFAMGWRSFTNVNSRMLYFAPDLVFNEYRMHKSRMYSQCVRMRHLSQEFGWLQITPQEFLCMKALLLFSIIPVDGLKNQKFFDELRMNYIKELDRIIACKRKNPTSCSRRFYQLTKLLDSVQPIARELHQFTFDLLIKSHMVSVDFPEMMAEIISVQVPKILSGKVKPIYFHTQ
The experiment can be described thus: cell-based or functional assay.

In the case of HPTHSSRLWELLMEATPTM (modifications not checked) [D30 peptide (…), LXXLL motif peptide], the two-hybrid peptide assay (pG4-LUC reporter, PC-3 cells, with against without 10 nM DHT) came out at 350 fold.
